Laboratory results: PMC6400189, “A three-domain copper-nitrite reductase with a unique sensing loop” (IUCrJ, 2019)

B1: TsNirK (Thermus scotoductus SA-01) (protein)
chain: AERHFTLEARSSIFEVDQGVYLRGFSFNDMSPGPMLVVEEGDTVHITLRNLDNVTHGLSIHAANTQTSRFLGNVQPGETREFSFTADFPGVFMYHCAPGGHGIMAHTMGGQFGMIVVEPKEKYRMERELGRGPDLKLYIIQSEAYASGRDFYDGKALYVMFNGRNFRYVDEPIPVRPGDYLRIYFLNVGPNLTSTLHVVGGIFEYMYYQGNPKNLVVGAQTALAGPSDSWVIEWRVPPVEGDYTLVTHVFGTAIKGALGILRAKKDAPRIPEVRAEGVPGVKEIPASAKRVVDPYGLASPGHEHTVRVPLDPALAQPVAVGAKALEPLPVTVQMVGNSFYPKVLEIPVGTTVEFVNEDVFDLLEGERTGRHDAVVIDVQGPEPFVTPKLGHGERYRITFTKPGEYVYICSIHPYMKGIIRVYEPLSQRADSQ
notes: codon-optimised gene in pET-22b(+), E. coli BL21(DE3); 451-residue subunits (~50 kDa), homotrimer, three Cu per subunit; domains Ala20-Glu137, Leu154-Ala282, Arg309-Leu444

Assays:
[1] = biological target: Copper-containing nitrite reductase (NirK) from Thermus scotoductus SA-01 (Thermus scotoductus SA-01); assay: SEC; Superdex 200 10/300 column, 150 mM Tris-HCl pH 7.6, 0.5 ml/min, calibrated with mass markers; subunit mass by SDS-PAGE
[2] = biological target: Copper-containing nitrite reductase (NirK) from Thermus scotoductus SA-01 (Thermus scotoductus SA-01); assay: crystal structure; twinned H3 crystals with one protomer in the asymmetric unit; trimer by the crystallographic threefold axis; data not shown
[3] = biological target: Copper-containing nitrite reductase (NirK) from Thermus scotoductus SA-01 (Thermus scotoductus SA-01); assay: crystal structure; C121 crystal with the whole homotrimer in the asymmetric unit, 1.63 Å; 0.2 M CaCl2, 0.1 M HEPES sodium pH 7.5, 28% PEG 400, 16°C
[4] = substrate: O=NO; assay: nitrite reductase kinetics, methyl viologen standard assay; type: biochemical, Thermus scotoductus; conditions: methyl viologen (dithionite-reduced) as artificial electron donor per standard NirK assay; apparent constant

| Molecule | stoichiometry N [1] | stoichiometry N [2] | stoichiometry N [3] | Km [4] [µM] | kcat [4] [s⁻¹] |
| --- | --- | --- | --- | --- | --- |
| Copper-containing nitrite reductase (NirK) from Thermus scotoductus SA-01 (enzyme) | 3 | 3 | 3 | – | – |
| B1 | – | – | – | 27 ± 2 | 65 ± 1 |
